In patent publication US20150086562A1 (BIOATLA, published 2015):

B1: VM1000 (antibody, V domains shown)
VH: QVQLVQSGAEVKKPGASVKVSCKASGYVFTSYWLHWIRQSPSRGLEWLGYINPRNDYTEYNRIFKGRLTISKDTSKNQVVLTMTNMDPVDTATYYCARRGITTFYWGQG
VL: EIVLTQSPATLSLSPGERATLSCKSSQSVLYSAVEKNYLAWYQQKPGKAPKLLIYWASTRERGVPSRFSGSGSGTDFTFTISSLQPEDIATYYCKQYLSSWTFGQG
notes: Humanized antibody with human constant region; also called anti-CD22 Mab clone VM1000
B2: VM1002 (antibody, V domains shown)
VH: EVQLVQSGAEVKKPGESLRISCKGSGYVFTSYWLHWVRQAPGQGLEWMGYINPRNDYTEYNRIFKGRVTITADKSTSTAYMELSSLRSEDTAVYYCARRGITTFYWGQG
VL: EIVLTQSPATLSLSPGERATLSCKSSQSVLYSAVEKNYLAWYQQKPGQAPRLLIYWASTRERGIPDRFSGSGSGTDFTLTISRLEPEDFAVYYCKQYLSSWTFGQG
notes: Humanized antibody with human constant region; also called anti-CD22 Mab clone VM1002
B3: VM1011 (antibody, V domains shown)
VH: QVQLQESGPGLVKPSQTLSLTCTVSGYVFTSYWLHWIRQPPGKGLEWIGYINPRNDYTEYNRIFKGRVTITADKSTSTAYMELSSLRSEDTAVYYCARRGITTFYWGQG
VL: EIVLTQSPATLSLSPGERATLSCKSSQSVLYSAVEKNYLAWYQQKPGQAPRLLIYWASTRERGIPDRFSGSGSGTDFTLTISRLEPEDFAVYYCKQYLSSWTFGQG
notes: Humanized antibody with human constant region; also called anti-CD22 Mab clone VM1011
B4: VM1004 (antibody, V domains shown)
VH: EVQLVQSGAEVKKPGATVKISCKVSGYVFTSYWLHWIRQSPSRGLEWLGYINPRNDYTEYNRIFKGRFVFSLDTSVSTAYLQICSLKAEDTAVYYCARRGITTFYWGQG
VL: EIVLTQSPATLSLSPGERATLSCKSSQSVLYSAVEKNYLAWYQQKPGKAPKLLIYWASTRERGIPDRFSGSGSGTDFTLTISRLEPEDFAVYYCKQYLSSWTFGQG
notes: Humanized antibody with human constant region; also called anti-CD22 Mab clone VM1004
B5: VM1001 (antibody, V domains shown)
VH: QVQLVQSGAEVKKPGASVKVSCKASGYVFTSYWLHWIRQSPSRGLEWLGYINPRNDYTEYNRIFKGRLTISKDTSKNQVVLTMTNMDPVDTATYYCARRGITTFYWGQG
VL: EIVLTQSPATLSLSPGERATLSCKSSQSVLYSAVEKNYLAWYQQKPGQAPRLLIYWASTRERGIPDRFSGSGSGTDFTLTISRLEPEDFAVYYCKQYLSSWTFGQG
notes: Humanized antibody with human constant region; also called anti-CD22 Mab clone VM1001
B6: VM1003 (antibody, V domains shown)
VH: EVQLVQSGAEVKKPGATVKISCKVSGYVFTSYWLHWIRQSPSRGLEWLGYINPRNDYTEYNRIFKGRFVFSLDTSVSTAYLQICSLKAEDTAVYYCARRGITTFYWGQG
VL: EIVLTQSPATLSLSPGERATLSCKSSQSVLYSAVEKNYLAWYQQKPGQAPRLLIYWASTRERGIPDRFSGSGSGTDFTLTISRLEPEDFAVYYCKQYLSSWTFGQG
notes: Humanized antibody with human constant region; also called anti-CD22 Mab clone VM1003
B7: VM1006 (antibody, V domains shown)
VH: QVQLVQSGAEVKKPGASVKVSCKASGYVFTSYWLHWIRQSPSRGLEWLGYINPRNDYTEYNRIFKGRFVFSLDTSVSTAYLQICSLKAEDTAVYYCARRGITTFYWGQG
VL: DIQMTQSPSSLSASVGDRVTITCKSSQSVLYSAVEKNYLAWYQQKPGKAPKLLIYWASTRERGIPDRFSGSGSGTDFTLTISRLEPEDFAVYYCKQYLSSWTFGQG
notes: Humanized antibody with human constant region; also called anti-CD22 Mab clone VM1006
B8: VM1007 (antibody, V domains shown)
VH: QVQLVQSGAEVKKPGASVKVSCKASGYVFTSYWLHWVRQARGQRLEWIGYINPRNDYTEYNRIFKGRVTITADKSTSTAYMELSSLRSEDTAVYYCARRGITTFYWGQG
VL: AIQLTQSPSSLSASVGDRVTITCKSSQSVLYSAVEKNYLAWYQQKPGKAPKLLIYWASTRERGVPSRFSGSGSGTDFTFTISSLEAEDAATYYCKQYLSSWTFGQG
notes: Humanized antibody with human constant region; also called anti-CD22 Mab clone VM1007

What was measured:
[1] = biological target: T1, CD22 protein expressed on the surface of Daudi cells (human, UniProt P20273 20-847); test: confocal immunofluorescence, FITC-labelled antibody on Daudi cells
T1 construct: whole, on cells; also called human CD22; cell surface CD22
T1 sequence (looked up): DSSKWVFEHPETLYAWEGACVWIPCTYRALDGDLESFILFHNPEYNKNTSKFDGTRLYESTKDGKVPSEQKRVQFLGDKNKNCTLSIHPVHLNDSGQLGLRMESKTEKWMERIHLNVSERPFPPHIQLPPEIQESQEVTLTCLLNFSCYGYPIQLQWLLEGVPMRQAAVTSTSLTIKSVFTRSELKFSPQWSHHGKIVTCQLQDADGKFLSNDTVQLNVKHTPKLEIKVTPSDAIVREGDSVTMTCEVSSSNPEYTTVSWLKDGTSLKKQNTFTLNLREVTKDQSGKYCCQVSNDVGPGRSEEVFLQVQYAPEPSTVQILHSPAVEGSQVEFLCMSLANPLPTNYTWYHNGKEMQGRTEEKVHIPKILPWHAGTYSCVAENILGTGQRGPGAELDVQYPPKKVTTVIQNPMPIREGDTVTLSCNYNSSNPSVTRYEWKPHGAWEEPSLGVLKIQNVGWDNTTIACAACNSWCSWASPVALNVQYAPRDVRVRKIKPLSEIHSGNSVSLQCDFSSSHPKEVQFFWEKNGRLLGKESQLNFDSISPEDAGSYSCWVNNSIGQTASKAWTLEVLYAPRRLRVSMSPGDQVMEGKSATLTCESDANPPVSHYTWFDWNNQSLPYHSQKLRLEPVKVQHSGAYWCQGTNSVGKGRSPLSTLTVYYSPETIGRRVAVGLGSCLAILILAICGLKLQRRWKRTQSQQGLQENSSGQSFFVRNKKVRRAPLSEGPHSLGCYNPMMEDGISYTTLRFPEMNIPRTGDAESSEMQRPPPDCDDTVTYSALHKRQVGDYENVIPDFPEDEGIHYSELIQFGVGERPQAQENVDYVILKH
Description: (§1) Selected antiCD22 selected anti-CD22 Mab clones VM1000, VM1001, VM1002, VM1003, VM1004, VM1005, VM1006, VM1007, VM1008, VM1009, VM1010, VM1011, VM1012, VM1013, VM1014, and VM1015 of the invention were directly conjugated to F1TC using the Zenon labeling complex (Molecular Probes) using the manufacturer's recommended procedures. Approximately 1×10e7 Daudi cells were resuspended in PBS containing 5 ug/ml labeled anti-CD22 antibody and incubated for 45 minutes on ice. Cells then washed twice in PBS-FBS solution at 0 C. Cells were then incubated in RPMI 1640 media containing 10% FBS for varying periods at 37 C, harvested and washed in PBS at 0 C. The cells were then briefly fixed in 4% paraformaldehyde solution for 5 min at room temperature, then washed in PBS containing 0.05% Triton X-100. Cell pellets were collected by centrifugation and resupended in a minimal volume of FBS neat, and then applied to glass microscope slides. Prior to analysis, slides were treated with mounting fluid containing the nuclear stain DAPI, then coverslips were applied. Confocal images were recorded using an ACAS Ultima confocal microscope (Meridian Instruments, Inc., Okemos, Mich.) and represent 1-μm sections through the center of a focal plane using a 100× oil immersion objective.
(§2) The Anti-CD22 monoclonal antibodies selected clones VM1000, VM1001, VM1002, VM1003, VM1004, VM1005, VM1006, VM1007, VM1008, VM1009, VM1010, VM1011, VM1012, VM1013, VM1014, and VM1015 of the invention were analysed for their ability to be rapidly internalized into the intracellular compartment as judged by immunoflourescent signal on the cell surface versus the intracellular endo cytotic compartment. The antibodies of the invention were compared to BA006H, and humanized version of the murine monoclonal antibody LL2. In this example, FIG. 21A, the anti-CD22 antibodies of the invention bind to CD22 protein expressed on the surface of Daudi cells by approximately 20-fold compared to BA006H as judged by relative mean fluorescence (RMF), and are virtually completely internalized within the cell with 90 minutes, localizing predominantly to within the perinuclear golgi apparatus and associated lysozomes. Shown in FIG. 21B is a chart of the RMF surface binding values obtained in this manner for individual anti-CD22 antibodies of the invention.

[2] = biological target: T1, CD22 protein expressed on the surface …; test: Quantitative confocal immunofluorescence of directly FITC-labelled antibody (5 ug/ml, 45 min on ice) on Daudi cells. paragraph 243 calls these 'RMF surface binding values'.
Description: as §1, §2

[3] = biological target: T2, recombinant CD22 extracellular domain; test: The sheet does not state the method. The column 'KD (nM)' stands beside the confocal data. The values largely repeat FIGURE 18 (SPR on recombinant CD22 extracellular domain), so the target form is taken from there.
T2 construct: Kept apart from m18, which is cell-surface CD22; also called CD22 (analyte in the BIAcore runs); CD22 ECD
Description: BIAcore 3000, GE Healthcare was used to determine binding curves and kinetic parameters. An anti-human Fc (1.8 mg/ml) was diluted to a concentration of 50 ug/ml in NaOAc buffer (10 mM, pH 4.8) and coupled to the carboxymethylated dextran matrix of a CM-5 sensor chip using the manufacturer's amine-coupling chemistry as described in the BIAcore systems manual. Using the surface preparation wizard aiming for 10000RU, the carboxyl groups on the sensor surfaces were first activated with NHS/EDC followed by the addition of the anti-human Fc. The remaining activated groups were blocked by the injection of 1M ethanolamine. Each of the flow cells was coupled individually. Employing these conditions, the four flow cell surfaces containing 7554-9571 RU of anti-human Fc were prepared. In preliminary experiments, it was determine that three injections (15 ul at 30 ul/min) 100 mM H₃PO₄/0.05% CHAPS would efficiently remove the bound immunoglobulin and preserve the binding capacity of the immobilized anti-human Fc.
Experiments were performed on the BIAcore 3000 at 25° C. and a flow rate of 30 ul/min. The antibody candidate was dissolved in HBS (10 mM HEPES with 0.15M NaCl, 3.4 mM EDTA, and 0.05% surfactant P20 at pH 7.4) at 5 ug/ml. The analyte, CD22, was dissolved in HBS at 0.25, 0.125, 0.062, 0.031 and 0.015 ug/ml. 3*30 ul of 5 ug/ml of antibody BA001 was flowed over its respective flow cell followed by injections of 240 ul of each CD22 concentration at 30 ul/min (association phase) and an uninterrupted 1200 seconds of buffer flow (dissociation phase). The surface of the chip was regenerated by three sequential injections of 15 ul each with 100 m M H₃PO₄/0.05% CHAPS. The injections of HBS serve as a reference (blank sensogram) for the subtraction of bulk refractive indices for analysis. Using the 1:1 model in BIAevaluation 4.1, both a local fit and global fit was done for both dissociation (kd, [s−1] and association (ka, [M⁻¹s⁻¹]) and the dissociation constant (KD, [M]) calculated (kd/ka).

Binder | fold surface binding by relative mean fluorescence (RMF) compared to BA006H [1] | RMF (Daudi Internalization by Confocal) [2] | Kd [3]
B1 | ~20 fold | ~100 RMF | 0.5 nM
B2 | ~20 fold | ~150 RMF | 0.33 nM
B3 | ~20 fold | ~200 RMF | –
B4 | ~20 fold | ~100 RMF | 0.8 nM
B5 | ~20 fold | ~100 RMF | 0.22 nM
B6 | ~20 fold | ~150 RMF | 0.34 nM
B7 | ~20 fold | ~200 RMF | –
B8 | ~20 fold | ~200 RMF | 1 nM
